Measurements as given in publication PMC6506776.
Values belong to the substance of their own block, whether it stands above or below them.

How the values were obtained:
[1] = target: NtCDC48, endogenous (Nicotiana tabacum (endogenous in cv. Xanthi cell suspensions)); assay: SDS-PAGE and immunoblot
[2] = target: cytosolic ascorbate peroxidase (cAPX), endogenous (Nicotiana tabacum (endogenous in cv. Xanthi cell suspensions)); assay: native gel or EMSA
[3] = target: CFP-NtCDC48 (Nicotiana tabacum); assay: FRET or BRET
[4] = target: His-NtCDC48 recombinant protein (Nicotiana tabacum); assay: SDS-PAGE and immunoblot

stoichiometry N [1]: 6
Substance: NtCDC48, endogenous (natural protein)

stoichiometry N [2]: 2
Substance: cytosolic ascorbate peroxidase (cAPX), endogenous (enzyme)

CFP donor fluorescence lifetime with the acceptor (2.97 ns for the donor alone) [3]: 2.41 ns
Substance: cAPX-YFP (enzyme)

stoichiometry N [4]: 6
Substance: His-NtCDC48 recombinant protein (natural protein)
